The chains are these.
B4: CYLD CAP-Gly3 (aa 460-582) (domain or fragment, human, UniProt Q9NQC7 460-582, looked up)
chain: LAMPPGNSHGLEVGSLAEVKENPPFYGVIRWIGQPPGLNEVLAGLELEDECAGCTDGTFRGTRYFTCALKKALFVKLKSCRPDSRFASLQPVSNQIERCNSLAFGGYLSEVVEENTPPKMEKE
notes: CYLD, human, third CAP-Gly domain with flanking residues, aa 460-582; 15N- or 15N,13C-labelled where it was the observed protein in NMR; also called pOPINS-CYLD 460-582; source: E. coli Rosetta2 (DE3) pLacI, purified (HisTrap, anion exchange, SEC)

What all share (details): both partners purified
The target of experiment [1] is T1, Ubiquitin (UniProt P0CG47 1-76).
T1 construct: ubiquitin (mono-ubiquitin), the cut product of the ubiquitin precursors; 15N-labelled in the Ub-observed NMR experiments, unlabelled in ITC, crystallisation and the CAP-Gly-observed NMR
Description: NMR titration; 15N-labelled Ub observed (BEST-TROSY, weighted chemical shift perturbations), unlabelled CAP-Gly domain added (3-fold molar excess for CAP-Gly3); 298 K; 20 mM Tris pH 7.4, 100 mM NaCl, 4 mM DTT.

In experiment [2] the target is T1, Ubiquitin. Briefly: crystal structure; CAP-Gly3 co-crystallised with 1.1 molar excess of Ub, sitting-drop vapor diffusion; molecular replacement.
In experiment [3] the target is B4. Briefly: NMR titration; isotope-labelled CAP-Gly domain or variant observed (BEST-TROSY, chemical shift perturbations), unlabelled partner added (Ub at 3-fold molar excess, or NEMO ZnF); 298 K; 20 mM Tris pH 7.4, 100 mM NaCl, 4 mM DTT.
Experiment [4] addresses T2, CYLD CAP-Gly3 L475P (aa 467-582) (human, UniProt Q9NQC7 467-582, L475P).
T2 construct: CYLD, human, third CAP-Gly domain, aa 467-582, with L475P; Isotope-labelled for NMR; also called pOPINS-CYLD 467-582 L475P; source: E. coli Rosetta2 (DE3) pLacI, purified (HisTrap, anion exchange, SEC)
T2 sequence (looked up): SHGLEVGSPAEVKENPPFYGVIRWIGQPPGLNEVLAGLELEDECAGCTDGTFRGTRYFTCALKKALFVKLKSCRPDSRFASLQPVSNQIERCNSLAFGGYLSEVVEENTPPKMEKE
Described as above.

B1: CYLD CAP-Gly2 (aa 226-313) (domain or fragment, human, UniProt Q9NQC7 226-313, looked up)
chain: ELPPLEINSRVSLKVGETIESGTVIFCDVLPGKESLGYFVGVDMDNPIGNWDGRFDGVQLCSFACVESTILLHINDIIPALSESVTQE
notes: CYLD, human, second CAP-Gly domain, aa 226-313; Isotope-labelled where it was the observed protein in NMR; also called pOPINS-CYLD 226-313; source: E. coli Rosetta2 (DE3) pLacI, purified (HisTrap, anion exchange, SEC)
Turning to B1, the binding result with Ubiquitin [1] was “binds”.

B2: CYLD CAP-Gly3 (aa 467-565), crystal form 2 (domain or fragment, human, UniProt Q9NQC7 467-565, looked up)
chain: SHGLEVGSLAEVKENPPFYGVIRWIGQPPGLNEVLAGLELEDECAGCTDGTFRGTRYFTCALKKALFVKLKSCRPDSRFASLQPVSNQIERCNSLAFGG
notes: also called CAP-Gly3 (467-565); source: E. coli Rosetta2 (DE3) pLacI, purified (HisTrap, anion exchange, SEC)
With B2, the binding result with Ubiquitin [2] is reported as “binds”.

B3: NEMO ZnF domain (aa 383-419) (domain or fragment, UniProt Q9Y6K9 383-419, looked up)
chain: SQRRSPPEEPPDFCCPKCQYQAPDMDTLQIHVMECIE
notes: NEMO/IKKγ, zinc finger domain, aa 383-419; Expression and purification of this construct are not described; also called NEMO/IKKγ; pOPINB-NEMO 383-419
For the molecule B3, the binding result in experiment [3] and in experiment [4] was “binds” throughout.
Consider B4, for which the binding result with Ubiquitin [1] is reported as “binds”.

B5: CYLD CAP-Gly3 (aa 467-552), crystal form 1 (domain or fragment, human, UniProt Q9NQC7 467-552, looked up)
chain: SHGLEVGSLAEVKENPPFYGVIRWIGQPPGLNEVLAGLELEDECAGCTDGTFRGTRYFTCALKKALFVKLKSCRPDSRFASLQPVS
notes: CYLD, human, third CAP-Gly domain extended C-terminally, aa 467-552 (the crystallisation methods say 465-552); also called CAP-Gly3 (467-552); source: E. coli Rosetta2 (DE3) pLacI, purified (HisTrap, anion exchange, SEC)
As to B5, the binding result in the experiment with Ubiquitin [2] is recorded as “binds”.

The values are drawn from publication PMC8511506 (Cell Reports, 2021).
